Results from patent publication US20100015126A1, “Methods of Binding of Cross-Beta Structures By Chaperones” (priority 2006, published 2010).

Key:
human BiP = target: T1, human BiP (Homo sapiens, UniProt P11021); assay: ELISA: binding of BiP-FLAG-His to immobilized (misfolded) protein ligands; conditions: ligands coated at 5 μg/ml; 6BB peptides and oxLDL 50 μg/ml
T1 construct: The human BiP gene except the signal peptide encoding region was obtained from Geneart (Germany); linker […]; made in house; host or cells: HEK 293E cells, transient transfection, PABC674 vector; secreted into the medium
In short: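 Ligands were coated at 5 μg/ml (50 μg/ml for 6BB# peptides and oxLDL) in 50 mM NaHCO3 pH 9.6, blocked, then incubated in triplicate with BiP-FLAG-His dilution series for 1 h at room temperature. Bound BiP was detected with peroxidase anti-FLAG M2 and TMB, stopped after 5 min and read at 450 nm. Buffer-only and chaperone-omitted background signals were subtracted.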

factor XII in plasma = target: T2, factor XII in plasma (Homo sapiens, UniProt P00748); assay: Factor XII activation assay (direct, substrate S-2222); assay type: biochemical; conditions: chromogenic substrate S-2222
T2 construct: from tissue; host or cells: plasma
T2 sequence (P00748 20-615): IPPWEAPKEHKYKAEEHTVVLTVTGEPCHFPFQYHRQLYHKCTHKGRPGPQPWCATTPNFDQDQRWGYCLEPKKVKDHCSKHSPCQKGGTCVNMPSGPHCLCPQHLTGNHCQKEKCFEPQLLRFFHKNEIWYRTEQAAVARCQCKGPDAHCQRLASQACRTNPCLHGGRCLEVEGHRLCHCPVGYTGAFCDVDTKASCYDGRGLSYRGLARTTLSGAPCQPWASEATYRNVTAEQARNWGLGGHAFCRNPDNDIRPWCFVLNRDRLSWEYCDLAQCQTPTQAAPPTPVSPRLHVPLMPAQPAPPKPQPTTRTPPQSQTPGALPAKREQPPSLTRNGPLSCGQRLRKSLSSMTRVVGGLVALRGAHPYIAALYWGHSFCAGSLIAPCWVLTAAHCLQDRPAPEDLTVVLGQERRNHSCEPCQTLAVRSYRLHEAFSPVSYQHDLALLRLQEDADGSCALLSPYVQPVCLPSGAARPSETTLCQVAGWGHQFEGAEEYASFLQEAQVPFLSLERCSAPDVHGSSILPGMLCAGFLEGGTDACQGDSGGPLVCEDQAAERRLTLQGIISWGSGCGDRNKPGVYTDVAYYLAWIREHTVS
Experimental: Alternatively, activation of factor XII was assessed directly by omitting prekallikrein and using a factor XII chromogenic substrate, S-2222 (Chromogenix, Italy).

HUVECs = assay: Adhesion of HUVECs to immobilized misfolded proteins under influence of BiP (LDH read-out); assay type: cell-based, human; conditions: BiP approximately 200 μg/ml
Experimental: HUVECs are primary endothelial cells (ECs), isolated from umbilical cords using 0.1% collagenase (Sigma, C0130, 100 mg, dissolved in 100 ml M199 medium supplemented with 10% FCS (Gibco 10106-169) and Penicillin-Streptomycin (P/S, Gibco, 15140-122)), according to widespread used standard procedures known to a person skilled in the art. HUVECs have the typical features of ECs, e.g. cobblestone morphology and von Willebrand factor storage in Weibel-Palade bodies. HUVECs can regularly be cultured up to passage 5; beyond passage 5 HUVECs loose typical EC markers. The isolation is described here in brief. The umbilical cord is washed for less than 3 minutes in ethanol and subsequently with PBS. The vein is connected to canules and flushed with 10 ml PBS, followed by loading with the 0.1% collagenase solution. After a 15 minute-incubation at 37° C., the detached endothelial cell suspension is recovered by flushing the vein with 10 ml medium which is subsequently added to the collagenase solution. The EC suspension is centrifuged for 5 minutes at room temperature, at low g-force. Supernatant is discarded and the cell pellet is resuspended in 5 ml ‘rich medium’ (EGM-2; Endothelial basal medium (EBM-2, Cambrex, CC-3156) and Singlequots containing supplements for endothelial cells (Cambrex, CC-4176)). Cells (passage 0, P0) are seeded in a culture flask coated with 0.5% gelatin (Sigma, G1393). To facilitate the adhesion of the endothelial cells, human fibronectin is added to the cell culture at a final concentration of 2 μg/ml. EC's are cultured at 37° C., at 5% CO2. The cell culture medium is refreshed every 2-3 days up to when the cells grow to confluency. Then, with the addition of trypsin-EDTA, the cells are detached from the flask, centrifuged at low g-force, resuspended in rich medium and seeded in larger 0.5% gelatin-precoated cell culture flasks.
In 96-wells plates (Immulon high-binding plates, Thermo Labsystems 3355) proteins, i.e. BSA-AGE, control BSA, IgIV Gammagard, crossbeta dIgIV-86 at 5 μg/ml, 10 μg/ml misfolded oxLDL, or gelatin (Sigma G1393, 2% solution in H2O or PBS, positive control for adhesion to ECs) were coated using 100 μl solutions, in six wells for each condition. Following incubation for 2 hours at 37° C. the solutions were discarded and the wells blocked for 1 hour at 37° C. with 100 μl/well of 1% polyvinyl-pyrrolidone (PVP, Sigma P5288) in PBS, filter (0.22 μm) sterilized. […] Subsequently, the block solution was discarded. Next, the plates were incubated with 40 μl RPMI 1640 medium (Gibco, 52400) and 10 μl of the potential inhibitor, i.e. recombinant human BiP at approximately 200 μg/ml final concentration. HUVECs were obtained by trypsinization. […] The absorbance at 490 nm was measured on a Versamax microplate reader at various time points.

T1 sequence (P11021 19-654): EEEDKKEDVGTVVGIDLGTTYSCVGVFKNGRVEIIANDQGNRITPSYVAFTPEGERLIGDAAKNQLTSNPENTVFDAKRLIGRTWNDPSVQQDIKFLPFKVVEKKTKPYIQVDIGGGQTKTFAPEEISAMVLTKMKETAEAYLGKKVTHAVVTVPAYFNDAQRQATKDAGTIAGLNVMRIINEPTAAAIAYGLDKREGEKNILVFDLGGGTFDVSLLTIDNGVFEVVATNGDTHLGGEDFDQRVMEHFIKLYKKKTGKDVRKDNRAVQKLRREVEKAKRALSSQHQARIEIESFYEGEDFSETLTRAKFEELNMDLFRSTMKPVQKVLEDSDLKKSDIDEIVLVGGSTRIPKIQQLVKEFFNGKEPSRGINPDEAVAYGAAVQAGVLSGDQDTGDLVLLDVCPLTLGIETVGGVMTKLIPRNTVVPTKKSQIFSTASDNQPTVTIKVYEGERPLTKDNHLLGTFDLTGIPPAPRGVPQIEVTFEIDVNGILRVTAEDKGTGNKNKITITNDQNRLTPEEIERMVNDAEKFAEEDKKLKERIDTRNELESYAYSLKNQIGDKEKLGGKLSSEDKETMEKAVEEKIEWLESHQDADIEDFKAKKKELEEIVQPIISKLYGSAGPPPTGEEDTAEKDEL

Row | Binding of concentration series of BiP to coated ligand (human BiP) | Activation of factor XII in plasma (conversion of S-2222) (factor XII in plasma) | Substance | Number of adhered HUVECs after preincubation of coated protein with BiP (HUVECs)
1 | has been established | stimulates the conversion of S-2222 | KRLEVDIDIKIRS [FP13, synthetic fibrin fragment comprising crossbeta structure] | –
2 | – | – | gelatin | hardly increase
